# Measured values: the supplement of paper PMC6755084
# B1: minF1; a variant is named by its letters at N, in order (parent)
# chain: GAGACCGCAACTGAAAAGTTGTTNNNNAANNNNNGGNTNAATTTCTGCACGTAGAAGCAAAAGGC
# Variants of: B1
# Assay: fraction ligated after 30 min (ligated reads / total reads); higher = more ligase activity
# Settings: with F1*subA RNA substrate (template-directed ligation), 42 °C
# Summary of the method: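 RNAs for minimized ligase ribozyme variants were transcribed with T7 from PCR-amplified oligo-pool templates and purified on gels. Ligated and unligated species were resolved on gels, converted to cDNA with barcoded primers, and read on a MiSeq with core bases filtered at quality ≥30. Fraction ligated per variant is the ratio of ligated reads to total reads.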
row,Variant,fraction ligated
1,ATCGAGGTGTG,0.00503
2,ATAGTGATGTG,0.00472
3,ATCAATGGAGT G35T T38G A40T,0.00324
4,ATAGATGGAGT G35T A40G,0.0113
5,ATAGATGTGTG,0.00472
6,ACAGATGGATG,0.000541
7,ACAGTGGATGT,0.00954
8,TGAAGGATGTG A29T,0.00393
9,ATAGATGGTTG,0.00545
10,TCAGATGGATG T23A,0.00344
11,TCAGATGGGTG,0.00281
12,TCAGATGGATG,0.00236
13,ATCGATGGAGT A40G,0.00946
14,ATCAAAGGAGT A28G G35T T38G A40T A41G,0.00104
15,ATAGATGGATG,0.00358
16,ATCAAAGGAGT A28G,0.00277
17,ATAGATGATTG,0.00301
18,ACAGATGGGTG,0.00695
19,TCAGATGGAGT T23A G35T,0.0188
20,ATCGATGATTG,0.00246
21,ATCAAATGTGT A28G A40G,0.00666
22,ATCAAATGAGT A28G,0.00227
23,ATCAAATGAGT A28G G35T A40G,0.0046
24,TCAGTGGAGTG T23A,0.00419
25,TCAGATGGAGT T23A G35T T38G A40T A41G,0.000947
26,ATCAATGGAGT A28G G35T T38G A40T A41G,0.00208

row,Variant,fraction ligated
1,ATCAAAGGTTG A28G,0.0026
2,AGAAGGATGTG T23A A29T,0.00429
3,ACGATGGATTG,0.0663
4,ATCAGGATGTG A28G,0.00911
5,TCGAGGATGTG,0.00582
6,ACAGGGATGTG,0.00108
7,ATCGATGGTGT,0.00463
8,ATCAAAGATGT A28G,0.00546
9,TCAGTGATGTG T23A,0.00342
10,TCAGATGGTGT T23A A40G,0.00684
11,ATAATGGATTG,0.00677
12,ATCGAGGATGT,0.004
13,ATGATGATGTG,0.00356
14,ATCATGGATGT,0.00625
15,TCGATGGAGTG,0.00518
16,ATCAATGATTG A28G,0.00338
17,ATCAAAGAGTG A28G,0.00276
18,ATCAATGGTGT A28G A40G,0.00763
19,ATCGGGATGTG A29T,0.045
20,ATGATGGATTG,0.0074
21,ATCAAAATGTG A28G,0.00354
22,ATAGATGATGT,0.000906
23,ATCAGGATGTG A29T,0.0416
24,ATGATGGAGTG,0.00146
25,ATCAATATGTG,0.00461
26,ATCATGATGTG,0.00541

row,Variant,fraction ligated
1,ATCGGGATGTG,0.00497
2,TCAGATGGGTG T23A,0.00356
3,TCGATGGTGTG,0.00336
4,ATAGATGGTGT,0.00303
5,ATCAAATGAGT A28G G35T,0.00393
6,ATCGTGGATGT A40G,0.0919
7,ATCAATGGAGT A28G,0.00328
8,ATCAATGAGTG A28G,0.00195
9,ATAGTGGAGTG,0
10,ATCAATGGAGT G35T A40G,0.0379
11,ATAGAGGTGTG,0.00246
12,ATCAAAGATTG A28G,0.00113
13,ACGAGGATGTG A29T,0.0139
14,TCAGGGATGTG A29T,0.00613
15,ATCAATGTGTG A28G,0.00293
16,ATAGATGGGTG,0.00409
17,ATCAAATAGTG A28G,0.00491
18,TCAGGGATGTG,0.00365
19,ATCGTGGATTG,0.0062
20,ATCAATGATGT A40G,0.0188
21,ATCAAATGGGT A28G G35A A40G,0.00585
22,TCGATGGATTG,0.127
23,ATCAAATGAGT A28G G35T T38G A40T,0.00229
24,ATCAAATATGT A28G A40G,0.00354
25,ACAGTGGATTG,0.013
26,ATCAAGATGTG A28G,0.00558

row,Variant,fraction ligated
1,ACAGTGGTGTG,0.00205
2,ATCGATGATGT,0.00439
3,TCGATGGATGT T23A A40G,0.0572
4,ATCGAGGATGT A40G,0.0171
5,ATAGATGGAGT A40G,0.00598
6,TCAGTGATGTG,0.00229
7,TGAAGGATGTG T23A A29T,0.00369
8,TCAGTGGATGT,0.00577
9,ATCAATGATGT,0.00391
10,ATCAATGGAGT A28G G35T T38G A40T,0.00109
11,ATCAATGGAGT G35T,0.0137
12,TCAGTGGATTG,0.0102
13,ATCAAATGTGT A28G,0.00203
14,ATCAAGGATGT A28G A40G,0.0268
15,TCAGATGGTGT A40G,0.00521
16,ACAGTGATGTG,0.00182
17,TCAGATGGTGT,0.00178
18,TCAGATGGAGT T23A,0.00368
19,ATCGATGGAGT G35T T38G A40T,0.0031
20,TCAGATGGTTG T23A,0.00182
21,ATCAATGATTG,0.00237
22,ATAGATGGAGT G35T T38G A40T A41G,0.00159
23,ATAGATATGTG,0.00482
24,ATCAGGATGTG,0.00723
25,ATCGATGGAGT,0.00434
26,ATAGTGGTGTG,0.0019

row,Variant,fraction ligated
1,ATCAATGATGT A28G A40G,0.0266
2,ATCAAAGGAGT A28G A40G,0.00414
3,ATCAAATATGT A28G,0.00373
4,ACAGATGGTTG,0.00164
5,ATCGATGGAGT G35T,0.0345
6,TCAGTGGTGTG T23A,0.00335
7,ATCAATGGTTG A28G,0.00263
8,ATCAAATGATG A28G,0.00241
9,ATCAAATATTG A28G,0.00289
10,ACAGTGGATGT A40G,0.017
11,ATCGATGGAGT G35T T38G A40T A41G,0.00105
12,TCAGTGGTGTG,0.00248
13,TCGATGATGTG T23A,0.00559
14,TCGATGGATGT,0.0171
15,ATCGAGGATTG,0.00198
16,TCAGTGGATGT T23A,0.00804
17,ACGATGGATGT,0.0146
18,ATAGTGGATTG,0.00612
19,ATAGGGATGTG,0.00301
20,ATCAATGATGT A28G,0.00479
21,TCGAGGATGTG T23A A29T,0.013
22,TCAGGGATGTG T23A,0.00448
23,ATCAAATGGGT A28G A40G,0.00524
24,TCGATGGATTG T23A,0.116
25,ATAGTGGATGT,0.0055
26,ATCGAGGAGTG,0.00378
